According to PMC11143224, “Flavivirus Zika NS4A protein forms large oligomers in liposomes and in mild detergent” (Scientific Reports, 2024):

How the values were obtained:
[1] = biological target: the molecule itself; experiment: AUC; sedimentation velocity, most diluted samples (detergent-to-protein ratio 640 and 320); 1 mM C14-betaine, 50 mM Tris-HCl pH 7.3, 100 mM NaCl, 2 mM TCEP, 33.4% D2O, 50,000 rpm, 25 °C, absorbance at 230 nm
[2] = biological target: the molecule itself; experiment: cross-linking; purified NS4A (12 uM) in POPC/POPS (4:1) liposomes, lipid-to-protein ratios 40, 100 and 250; DSS 0.03-1.0 mM, or DSG, BS3, DSS, EGS, DSP at 0.25 mM, 15 min; SDS-PAGE and anti-His-tag Western blot
[3] = biological target: the molecule itself; experiment: AUC; sedimentation equilibrium, multi-speed (15,000-33,000 rpm), 1 mM C14-betaine, 50 mM Tris-HCl pH 7.3, 100 mM NaCl, 2 mM TCEP, 33.4% D2O, absorbance at 280 nm; fitted in SEDPHAT; constant is of dimers to hexamer

B1: full-length Zika NS4A protein (strain MR-766) (natural protein)
chain: GAALGVMEALGTLPGHMTERFQEAIDNLAVLMRAETGSRPYKAAAAQLPETLETIMLLGLLGTVSLGIFFVLMRNKGIGKMGFGMVTLGASAWLMWLSEIEPARIACVLIVVFLLLVVLIPEPEKQR
notes: NS4A of Zika virus strain MR-766, the cut product of the polyprotein (mature NS4A without 2K), 127 residues (1-127); also called ZIKV NS4A; NS4A-FL; not shown: His-tag, N-terminal, kept
stoichiometry N [1]: 2 | stoichiometry N [2]: ≥ 6 | stoichiometry N [3]: 6
